Positions count from the first letter of the chain named. One block for each binder: values may come before it.
Key:
huFXII-his (human) [1] = target: huFXII-his (human) (UniProt P00748); experiment: cell-based or functional assay
huFXII-his (human) [2] = target: huFXII-his (human) (UniProt P00748); experiment: ELISA, huFXII-his coated at 1 µg/ml, HRP anti-human secondary, OD450
huFXII-his = target: T1, huFXII-his (human, UniProt P00748 20-615); experiment: cell-based or functional assay
T1 sequence (looked up): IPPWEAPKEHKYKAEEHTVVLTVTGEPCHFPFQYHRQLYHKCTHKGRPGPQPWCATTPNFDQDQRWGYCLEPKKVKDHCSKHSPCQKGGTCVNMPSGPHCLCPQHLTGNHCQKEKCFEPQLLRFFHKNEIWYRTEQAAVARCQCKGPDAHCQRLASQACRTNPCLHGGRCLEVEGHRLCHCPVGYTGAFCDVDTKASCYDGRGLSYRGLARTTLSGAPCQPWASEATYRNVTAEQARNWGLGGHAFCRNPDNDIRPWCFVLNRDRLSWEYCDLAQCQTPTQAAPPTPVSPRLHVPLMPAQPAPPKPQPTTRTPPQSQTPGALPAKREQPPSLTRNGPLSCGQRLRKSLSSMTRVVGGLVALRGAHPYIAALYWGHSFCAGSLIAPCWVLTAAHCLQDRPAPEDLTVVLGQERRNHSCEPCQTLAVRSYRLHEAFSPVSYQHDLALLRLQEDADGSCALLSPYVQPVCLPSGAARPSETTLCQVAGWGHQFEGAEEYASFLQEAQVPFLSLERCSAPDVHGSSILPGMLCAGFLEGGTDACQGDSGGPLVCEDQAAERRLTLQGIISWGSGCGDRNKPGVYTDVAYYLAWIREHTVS

B2: FX-Y17-Y9 (antibody, V domains shown)
VH: EVQLLESGGGLVQPGGSLRLSCAGSGFSFGSQTMSWVRQAPGKGLEWVSSISVISGRKYYADSVKGRFTISRDNSKNTLYLQMNSLRAEDTAVYYCAKSHAFDVWGQGTMVTVSS
VL: EIVLTQSPATLSVSPGERATLSCRASQSVYSALAWYQQKPGQAPRLLIYGASTRATGIPARFSGSGSGTEFTLTISSLQSEDFAVYYCQQYHKWPLSFGGGTKVEIK
IC50 of inhibition of cleavage of chemical substrate S2302 by FXIIa (OD405) (huFXII-his (human) [1]): 0.0244 µg/mL | EC50 (huFXII-his (human) [2]): 0.228 µg/mL

B4: FX-Y17-Y12 (antibody, V domains shown)
VH: B2 VH with K58T, A97T, S99W
VL: B2 VL with V29L, A32H, H92K
IC50 of inhibition of cleavage of chemical substrate S2302 by FXIIa (OD405) (huFXII-his (human) [1]): 0.0296 µg/mL | EC50 (huFXII-his (human) [2]): 0.364 µg/mL

B5: FX-Y17-Y21 (antibody, V domains shown)
VH: B2 VH with V53H, K58T
VL: B2 VL with Y91N, H92N
IC50 of inhibition of cleavage of chemical substrate S2302 by FXIIa (OD405) (huFXII-his (human) [1]): 0.0132 µg/mL | EC50 (huFXII-his (human) [2]): 0.101 µg/mL

B7: FX-Y17-Y43 (antibody, V domains shown)
VH: B2 VH with I51S, K58T, A97T, K98R
VL: B2 VL
IC50 of inhibition of cleavage of chemical substrate S2302 by FXIIa (OD405) (huFXII-his): 0.0146 µg/mL

B8: FX-Y17-Y42 (antibody, V domains shown)
VH: B2 VH with F29L, K58M, A97T
VL: B2 VL
IC50 of inhibition of cleavage of chemical substrate S2302 by FXIIa (OD405) (huFXII-his): 0.0177 µg/mL

B9: FX-Y17-Y13 (antibody, V domains shown)
VH: B2 VH with G56R, K58T, A97T, K98R
VL: B2 VL with A32N
IC50 of inhibition of cleavage of chemical substrate S2302 by FXIIa (OD405) (huFXII-his (human) [1]): 0.0259 µg/mL | EC50 (huFXII-his (human) [2]): 0.128 µg/mL

B12: FX-Y17-Y7 (antibody, V domains shown)
VH: B2 VH with K58A, A97T
VL: B2 VL
IC50 of inhibition of cleavage of chemical substrate S2302 by FXIIa (OD405) (huFXII-his (human) [1]): 0.02 µg/mL | EC50 (huFXII-his (human) [2]): 0.136 µg/mL

B13: FX-Y17-Y19 (antibody, V domains shown)
VH: B2 VH with G56K, K58T, A97T, K98R
VL: B2 VL
IC50 of inhibition of cleavage of chemical substrate S2302 by FXIIa (OD405) (huFXII-his (human) [1]): 0.0214 µg/mL | EC50 (huFXII-his (human) [2]): 0.149 µg/mL

B14: FX-Y17-Y33 (antibody, V domains shown)
VH: B2 VH with A97T
VL: B2 VL
IC50 of inhibition of cleavage of chemical substrate S2302 by FXIIa (OD405) (huFXII-his): 0.022 µg/mL

B15: FX-Y17-Y38 (antibody, V domains shown)
VH: B2 VH with G56R, K58T
VL: B2 VL
IC50 of inhibition of cleavage of chemical substrate S2302 by FXIIa (OD405) (huFXII-his): 0.016 µg/mL

B16: FX-Y17-Y18 (antibody, V domains shown)
VH: B2 VH with K58S, A97T, S99H
VL: B2 VL with Y30W, A32N
IC50 of inhibition of cleavage of chemical substrate S2302 by FXIIa (OD405) (huFXII-his (human) [1]): 0.0242 µg/mL | EC50 (huFXII-his (human) [2]): 0.172 µg/mL

B18: FX-Y17-Y28 (antibody, V domains shown)
VH: B2 VH with K58T, A97T, S99Q
VL: B2 VL
IC50 of inhibition of cleavage of chemical substrate S2302 by FXIIa (OD405) (huFXII-his): 0.0267 µg/mL

B21: FX-Y17-Y40 (antibody, V domains shown)
VH: B2 VH with K58T, A97T, S99A
VL: B2 VL with Y30W, A32N
IC50 of inhibition of cleavage of chemical substrate S2302 by FXIIa (OD405) (huFXII-his (human) [1]): 0.0155 µg/mL | EC50 (huFXII-his (human) [2]): 0.0781 µg/mL

B23: FX-Y17-Y14 (antibody, V domains shown)
VH: B2 VH with V53H, K58T, A97T, A101R
VL: B2 VL with Y91N, H92N
IC50 of inhibition of cleavage of chemical substrate S2302 by FXIIa (OD405) (huFXII-his (human) [1]): 0.0138 µg/mL | EC50 (huFXII-his (human) [2]): 0.14 µg/mL

B24: FX-Y17-Y35 (antibody, V domains shown)
VH: B2 VH with K58D
VL: B2 VL
IC50 of inhibition of cleavage of chemical substrate S2302 by FXIIa (OD405) (huFXII-his): 0.0139 µg/mL

B28: FX-Y17-Y46 (antibody, V domains shown)
VH: B2 VH with V53Y, K58T, A97T, S99G
VL: B2 VL with Y30W, A32N, H92Q
IC50 of inhibition of cleavage of chemical substrate S2302 by FXIIa (OD405) (huFXII-his (human) [1]): 0.0321 µg/mL | EC50 (huFXII-his (human) [2]): 0.257 µg/mL

B29: FX-Y17-Y36 (antibody, V domains shown)
VH: B2 VH with G56K, K58T, A97T
VL: B2 VL
IC50 of inhibition of cleavage of chemical substrate S2302 by FXIIa (OD405) (huFXII-his): 0.0155 µg/mL

B30: FX-Y17-Y6 (antibody, V domains shown)
VH: B2 VH with V53Y, K58T, A97T
VL: B2 VL
IC50 of inhibition of cleavage of chemical substrate S2302 by FXIIa (OD405) (huFXII-his): 0.0157 µg/mL

B32: FX-Y17-Y37 (antibody, V domains shown)
VH: B2 VH with K58S, A97T
VL: B2 VL with Y30W, A32N
IC50 of inhibition of cleavage of chemical substrate S2302 by FXIIa (OD405) (huFXII-his (human) [1]): 0.0143 µg/mL | EC50 (huFXII-his (human) [2]): 0.0629 µg/mL

B33: FX-Y17-Y10 (antibody, V domains shown)
VH: B2 VH with K58A, A97T, S99A
VL: B2 VL
IC50 of inhibition of cleavage of chemical substrate S2302 by FXIIa (OD405) (huFXII-his (human) [1]): 0.028 µg/mL | EC50 (huFXII-his (human) [2]): 0.161 µg/mL

B35: FX-Y17-Y39 (antibody, V domains shown)
VH: B2 VH with V53H, K58T, A97T, A101D
VL: B2 VL with Y91N, H92N
IC50 of inhibition of cleavage of chemical substrate S2302 by FXIIa (OD405) (huFXII-his): 0.0422 µg/mL

Now from value to binder:

IC50 of inhibition of cleavage of chemical substrate S2302 by FXIIa (OD405) (huFXII-his (human) [1]): 0.0178 µg/mL | EC50 (huFXII-his (human) [2]): 0.164 µg/mL
B1: FX-Y17-Y2 (antibody, V domains shown)
VH: B2 VH with V53H, K58T, A97T
VL: B2 VL with Y91N, H92N

IC50 of inhibition of cleavage of chemical substrate S2302 by FXIIa (OD405) (huFXII-his (human) [1]): 0.021 µg/mL | EC50 (huFXII-his (human) [2]): 0.125 µg/mL
B3: FX-Y17-Y16 (antibody, V domains shown)
VH: B2 VH with K58S
VL: B2 VL

IC50 of inhibition of cleavage of chemical substrate S2302 by FXIIa (OD405) (huFXII-his (human) [1]): 0.0237 µg/mL | EC50 (huFXII-his (human) [2]): 0.151 µg/mL
B6: FX-Y17-Y1 (antibody, V domains shown)
VH: B2 VH with G56R, K58T, A97T
VL: B2 VL

IC50 of inhibition of cleavage of chemical substrate S2302 by FXIIa (OD405) (huFXII-his (human) [1]): 0.0202 µg/mL | EC50 (huFXII-his (human) [2]): 0.187 µg/mL
B10: FX-Y17-Y22 (antibody, V domains shown)
VH: B2 VH with V53Y, K58T, A97T, K98R
VL: B2 VL with Y30W, A32N

IC50 of inhibition of cleavage of chemical substrate S2302 by FXIIa (OD405) (huFXII-his (human) [1]): 0.0254 µg/mL | EC50 (huFXII-his (human) [2]): 0.167 µg/mL
B11: FX-Y17-Y5 (antibody, V domains shown)
VH: B2 VH with K58Y, A97T
VL: B2 VL

IC50 of inhibition of cleavage of chemical substrate S2302 by FXIIa (OD405) (huFXII-his (human) [1]): 0.0127 µg/mL | EC50 (huFXII-his (human) [2]): 0.083 µg/mL
B17: FX-Y17-Y30 (antibody, V domains shown)
VH: B2 VH with K58T
VL: B2 VL with Y30F, A32N, K93W

IC50 of inhibition of cleavage of chemical substrate S2302 by FXIIa (OD405) (huFXII-his (human) [1]): 0.0187 µg/mL | EC50 (huFXII-his (human) [2]): 0.127 µg/mL
B19: FX-Y17-Y20 (antibody, V domains shown)
VH: B2 VH with K58S, A97T
VL: B2 VL

IC50 of inhibition of cleavage of chemical substrate S2302 by FXIIa (OD405) (huFXII-his (human) [1]): 0.0156 µg/mL | EC50 (huFXII-his (human) [2]): 0.117 µg/mL
B20: FX-Y17-Y31 (antibody, V domains shown)
VH: B2 VH with K58N
VL: B2 VL with Y30W, A32N

IC50 of inhibition of cleavage of chemical substrate S2302 by FXIIa (OD405) (huFXII-his (human) [1]): 0.0129 µg/mL | EC50 (huFXII-his (human) [2]): 0.0942 µg/mL
B22: FX-Y17-Y23 (antibody, V domains shown)
VH: B2 VH with K58S, A97T, K98R
VL: B2 VL with Y30W, A32N

IC50 of inhibition of cleavage of chemical substrate S2302 by FXIIa (OD405) (huFXII-his (human) [1]): 0.0196 µg/mL | EC50 (huFXII-his (human) [2]): 0.237 µg/mL
B25: FX-Y17-Y8 (antibody, V domains shown)
VH: B2 VH with G56R, K58T, A97T
VL: B2 VL with Y30W, A32N

IC50 of inhibition of cleavage of chemical substrate S2302 by FXIIa (OD405) (huFXII-his (human) [1]): 0.0199 µg/mL | EC50 (huFXII-his (human) [2]): 0.169 µg/mL
B26: FX-Y17-Y17 (antibody, V domains shown)
VH: B2 VH with V53Y, K58T, A97T, S99G
VL: B2 VL with Y30W, A32N

IC50 of inhibition of cleavage of chemical substrate S2302 by FXIIa (OD405) (huFXII-his): 0.019 µg/mL
B27: FX-Y17-Y41 (antibody, V domains shown)
VH: B2 VH with K58R
VL: B2 VL

IC50 of inhibition of cleavage of chemical substrate S2302 by FXIIa (OD405) (huFXII-his (human) [1]): 0.0202 µg/mL | EC50 (huFXII-his (human) [2]): 0.131 µg/mL
B31: FX-Y17-Y15 (antibody, V domains shown)
VH: B2 VH with K58P, A97T
VL: B2 VL

IC50 of inhibition of cleavage of chemical substrate S2302 by FXIIa (OD405) (huFXII-his (human) [1]): 0.0154 µg/mL | EC50 (huFXII-his (human) [2]): 0.216 µg/mL
B34: FX-Y17-Y3 (antibody, V domains shown)
VH: B2 VH with V53Y, K58T, A97T
VL: B2 VL with Y30W, A32N

— EP4729546A1 (Jiangsu BioJeTay Biotechnology Co., Ltd., dated 2026)
